Target: T1, His6-PLCβ2 (phospholipase Cβ2) (UniProt Q00722 1-1185, CPM (thiol-reactive coumarin) on Cys side chains where printed as CPM-PLCβ2; Dabcyl where printed as PLCβ2 with DAB acceptor; unlabelled elsewhere)
T1 construct: phospholipase C β2; called the full length / whole enzyme; printed mass 133.7 kDa; One construct used CPM-labelled, Dabcyl-labelled or unlabelled; also called PLCß2; CPM-PLCβ2; source: Sf9 cells, baculovirus system, purified
Assay: other fluorescence titration; activated Gαq and PLCß2, without γ-synuclein; which partner was labelled is not stated
Details: both partners purified

T1 sequence (Q00722 whole entry): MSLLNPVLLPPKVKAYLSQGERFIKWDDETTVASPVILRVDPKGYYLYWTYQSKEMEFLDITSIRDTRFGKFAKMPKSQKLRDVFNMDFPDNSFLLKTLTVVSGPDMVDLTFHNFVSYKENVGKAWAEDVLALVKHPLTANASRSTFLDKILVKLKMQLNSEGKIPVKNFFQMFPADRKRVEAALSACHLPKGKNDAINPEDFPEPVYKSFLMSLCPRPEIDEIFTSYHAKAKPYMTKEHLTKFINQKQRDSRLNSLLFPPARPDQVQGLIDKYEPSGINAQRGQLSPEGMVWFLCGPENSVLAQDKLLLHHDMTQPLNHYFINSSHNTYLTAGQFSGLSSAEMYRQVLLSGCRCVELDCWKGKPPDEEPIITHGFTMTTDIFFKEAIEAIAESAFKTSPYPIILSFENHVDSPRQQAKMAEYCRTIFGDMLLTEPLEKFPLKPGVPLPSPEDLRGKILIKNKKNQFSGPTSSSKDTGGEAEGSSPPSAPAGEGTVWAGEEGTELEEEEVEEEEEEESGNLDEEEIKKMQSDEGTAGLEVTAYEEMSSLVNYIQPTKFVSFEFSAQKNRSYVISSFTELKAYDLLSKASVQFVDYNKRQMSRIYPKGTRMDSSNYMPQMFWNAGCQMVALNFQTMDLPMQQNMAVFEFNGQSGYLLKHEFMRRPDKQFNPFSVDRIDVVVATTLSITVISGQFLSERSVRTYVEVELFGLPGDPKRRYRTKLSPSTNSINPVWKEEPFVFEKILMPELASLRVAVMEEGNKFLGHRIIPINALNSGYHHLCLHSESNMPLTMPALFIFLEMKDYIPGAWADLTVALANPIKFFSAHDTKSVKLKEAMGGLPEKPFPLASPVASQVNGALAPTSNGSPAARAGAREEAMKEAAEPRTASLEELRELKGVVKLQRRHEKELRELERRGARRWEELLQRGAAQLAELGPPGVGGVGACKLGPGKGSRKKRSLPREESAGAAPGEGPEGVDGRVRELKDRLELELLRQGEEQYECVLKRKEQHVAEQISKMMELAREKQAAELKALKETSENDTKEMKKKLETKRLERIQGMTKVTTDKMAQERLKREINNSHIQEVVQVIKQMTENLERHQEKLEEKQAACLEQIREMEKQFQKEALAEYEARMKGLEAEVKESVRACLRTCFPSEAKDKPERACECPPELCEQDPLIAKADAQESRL

Kd: 0.3 ± 0.2 nM
B1: Gαq(GTPγS) (natural protein, UniProt P50148 1-359, looked up)
chain: MTLESIMACCLSEEAKEARRINDEIERQLRRDKRDARRELKLLLLGTGESGKSTFIKQMRIIHGSGYSDEDKRGFTKLVYQNIFTAMQAMIRAMDTLKIPYKYEHNKAHAQLVREVDVEKVSAFENPYVDAIKSLWNDPGIQECYDRRREYQLSDSTKYYLNDLDRVADPAYLPTQQDVLRVRVPTTGIIEYPFDLQSVIFRMVDVGGQRSERRKWIHCFENVTSIMFLVALSEYDQVLVESDNENRMEESKALFRTIITYPWFQNSSVILFLNKKDLLEEKIMYSHLVDYFPEYDGPQRDAQAAREFILKMFVDLNPDSDKIIYSHFTCATDTENIRFVFAAVKDTILQLNLKEYNLV
notes: source: Sf9 cells, co-expressed with Gβ1 and His6-Gγ2

Source: publication PMC3414502, “γ-Synuclein Interacts with Phospholipase Cβ2 to Modulate G Protein Activation” (PLoS ONE, 2012)
